The target in test [1] is T1, human CD3 on T cells (Jurkat cells; human peripheral blood CD4+ and CD8+ T-cells) (human, UniProt P07766 23-207).
T1 construct: whole, on cells; also called CD4T; CD4 + T
Nature of the test: flow cytometry on human peripheral blood CD8+ T-cells. The procedure: (§1) Fresh human peripheral blood was taken and PBMC was isolated by Ficoll. Paque Plu (GE, 17-1440-03). PBMC was adjusted to 5×10⁵ cells/mL with 4% calf serum (Hyclone, SH30626.06), 100 μL/well was added to a 96-well U-plate, the supernatant was centrifuged off and 100 μL of gradient diluted antibody (with starting concentration of 1800 nM, 3-fold dilution, 10 gradients) was added to each well and incubated for 60 min at 4° C. 50 μL/well of Alexa Fluro647 labeled goat anti-human IgG Fc (1:300 dilution) was added to the secondary antibody, with ice bath for 20 min, and 50 μL/well PI added after washing once, incubated for 5 min, and flow cytometer (BD C6) was used for detection. The control antibody REGN5458 was synthesized and prepared according to US20200024356.

Test [2] deals with T1, human CD3 on T cells (Jurkat cells; …). As to the kind of experiment: flow cytometry on human peripheral blood CD4+ T-cells. The method, then: as §1
Test [3] deals with T2, human CD3εγ-Fc heterodimer (human).
T2 construct: also called human CD3εγ recombinant protein; human CD3εγ protein
T2 chain 1: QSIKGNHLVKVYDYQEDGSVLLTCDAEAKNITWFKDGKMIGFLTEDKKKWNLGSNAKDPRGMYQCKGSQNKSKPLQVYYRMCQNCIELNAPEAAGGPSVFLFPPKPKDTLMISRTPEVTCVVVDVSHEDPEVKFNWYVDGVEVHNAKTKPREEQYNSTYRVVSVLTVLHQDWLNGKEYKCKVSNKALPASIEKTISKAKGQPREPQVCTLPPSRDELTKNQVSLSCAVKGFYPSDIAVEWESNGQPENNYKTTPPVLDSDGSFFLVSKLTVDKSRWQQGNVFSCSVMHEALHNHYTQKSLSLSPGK
T2 chain 2: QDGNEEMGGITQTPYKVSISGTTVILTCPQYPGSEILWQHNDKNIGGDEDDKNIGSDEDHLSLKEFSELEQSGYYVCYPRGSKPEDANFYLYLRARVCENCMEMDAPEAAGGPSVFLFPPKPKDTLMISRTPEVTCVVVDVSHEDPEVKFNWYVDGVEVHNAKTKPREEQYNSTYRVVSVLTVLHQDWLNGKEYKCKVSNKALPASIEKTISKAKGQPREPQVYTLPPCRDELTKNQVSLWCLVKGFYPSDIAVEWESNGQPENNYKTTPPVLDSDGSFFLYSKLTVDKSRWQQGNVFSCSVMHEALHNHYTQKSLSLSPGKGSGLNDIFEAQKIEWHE
As to the kind of experiment: SPR (Biacore T200), antigen amine-coupled on CM5 chip, antibody as analyte, 1:1 model. The procedure: 10 μg/mL human or cynomolgus monkey BCMA or CD3εγ recombinant antigen was bound to a CM5 chip (GE healthcare) by amino conjugating, while the amount of antigen bound was controlled to approximately 200 RU. After baseline plateau, gradient diluted antibodies (7 gradients of 2-fold dilutions from 10 μg/mL) were flowed through the chip at a flow rate of 30 μL/min for a binding time of 350 seconds and a dissociation time of 600 seconds. Kinetic constants were fitted using Biacore T200 evaluation software with a 1:1 binding model.
For orientation: SPR reads the build-up and loss of mass on a sensor chip optically.

Test [4] deals with T3, cynomolgus monkey CD20 on CHO stably transfected cells (cynomolgus monkey, UniProt M4ZHZ6 1-297).
T3 construct: whole, on cells; also called Cynomolgus monkey CD20-CHO; CHO-cynomolgus monkey CD20
T3 sequence: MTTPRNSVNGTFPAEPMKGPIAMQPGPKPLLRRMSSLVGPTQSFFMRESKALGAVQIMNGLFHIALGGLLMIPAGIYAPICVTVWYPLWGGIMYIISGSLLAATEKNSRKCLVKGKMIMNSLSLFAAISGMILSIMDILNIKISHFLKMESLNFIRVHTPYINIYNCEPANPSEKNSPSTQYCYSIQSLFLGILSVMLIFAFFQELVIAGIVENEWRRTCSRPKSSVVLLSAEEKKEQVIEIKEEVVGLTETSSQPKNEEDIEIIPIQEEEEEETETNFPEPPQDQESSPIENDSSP
Nature of the test: flow cytometry on CHO-cynomolgus monkey CD20 stably transfected cells. The method, then: (§2) CHO-human CD20 and CHO-cynomolgus monkey CD20 stably transfected cells prepared in Example 1 in logarithmic growth phase were adjusted to 5×10⁵ cells/ml with 4% calf serum (Hyclone, SH30626.06), 100 μl/well cell suspension was added to 96-well U-plate, 300 g thereof was centrifuged for 5 min, the supernatant was discarded, and 100 μL of gradient diluted antibody (with starting concentration of 1800 nM, 3-fold dilution, 10 gradients) was added to each well and incubated at 4° C. for 60 min. 50 μL/well Alexa Fluro647 labeled goat anti-human IgG Fc (1:300 dilution) was added to the secondary antibody and incubated on ice for 20 min. After washing once, 50 μL/well propidium iodide (PI) solution (1:300) was added, incubated for 5 min, and performed with detection by flow cytometry.

In test [5] the target is T4, human CD20 on cells (CHO-human CD20 stably transfected cells; SU-DHL-4, Raji, NALM-6 tumor cells) (human, UniProt P11836 1-297).
T4 construct: whole, on cells; also called Human CD20-CHO; cellular CD20 receptor
T4 sequence (looked up): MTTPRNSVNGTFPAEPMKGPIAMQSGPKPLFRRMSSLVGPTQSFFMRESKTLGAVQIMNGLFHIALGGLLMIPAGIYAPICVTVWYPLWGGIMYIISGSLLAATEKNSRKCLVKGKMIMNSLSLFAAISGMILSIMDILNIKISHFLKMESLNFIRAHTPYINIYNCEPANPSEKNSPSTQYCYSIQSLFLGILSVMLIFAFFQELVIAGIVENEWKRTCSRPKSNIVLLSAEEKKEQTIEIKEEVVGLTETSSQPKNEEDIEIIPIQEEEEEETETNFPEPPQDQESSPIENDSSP
Nature of the test: flow cytometry on CHO-human CD20 stably transfected cells. The method, then:
as §2
(A flow cytometer gives signals particle by particle.)

Drawing on US20250346685A1 (published 2025), this text covers EC50 and Kd for three molecules.

By EC50 is commonly meant the midpoint of the concentration-response curve. For orientation: Kd means a measure of binding affinity in units of concentration.

B1: BCMA × CD3 κλ004 (bispecific antibody, human IgG4 S228P, kappa, lambda)
light 1: DIVLTQSPASLAVSPGQRATITCRASKSVTTSGYSYIHWYQKKPGQPPKLLIYLASDLEAGVPARFSGSGSGTDFTLTINPVEAEDTANYYCQHSRELPWTFGQGTKVEIKRTVAAPSVFIFPPSDEQLKSGTASVVCLLNNFYPREAKVQWKVDNALQSGNSQESVTEQDSKDSTYSLSSTLTLSKADYEKHKVYACEVTHQGLSSPVTKSFNRGEC
heavy 1: QVQLVQSGSELKKPGASVKVSCKASGYIFTNFGMNWVREAPGQGLEWMGWINTYTGEQIYADGFTGRFVFSLDTSASTAYLQISSLKAEDTAVYFCARGEIYYGYDVGFVYWGQGTLVTVSSASTKGPSVFPLAPCSRSTSESTAALGCLVKDYFPEPVTVSWNSGALTSGVHTFPAVLQSSGLYSLSSVVTVPSSSLGTKTYTCNVDHKPSNTKVDKRVESKYGPPCPPCPAPEFEGGPSVFLFPPKPKDTLMISRTPEVTCVVVDVSQEDPEVQFNWYVDGVEVHNAKTKPREEQFNSTYRVVSVLTVLHQDWLNGKEYKCKVSNKGLASSIEKTISKAKGQPREPQVCTLPPSQEEMTKNQVSLSCAVKGFYPSDIAVEWESNGQPENNYKTTPPVLDSDGSFFLVSKLTVDKSRWQEGNVFSCSVMHEALHNHYTQKSLSLSLGK
light 2: QAVVTQEPSLTVSPGGTVTLTCRSSTGAVTTSNYANWVQEKPGQAPRGLIGGTNKRAPWTPARFSGSLLGGKAALTITGAQAEDEAEYYCVLWYSNLWVFGGGTKLTVLGQPKAAPSVTLFPPSSEELQANKATLVCLISDFYPGAVTVAWKADSSPVKAGVETTTPSKQSNNKYAASSYLSLTPEQWKSHRSYSCQVTHEGSTVEKTVAPTECS
heavy 2: EVQLVESGGGLVQPGGSLRLSCAASGFTFNTYAMNWVRKAPGKGLEWVGRIRSKYNNYATYYADSVKDRFTISRDDSKNSLYLQMNSLKTEDTAVYYCVRHGNFGNSYVSWFAYWGQGTLVTVSSASTKGPSVFPLAPCSRSTSESTAALGCLVKDYFPEPVTVSWNSGALTSGVHTFPAVLQSSGLYSLSSVVTVPSSSLGTKTYTCNVDHKPSNTKVDKRVESKYGPPCPPCPAPEFEGGPSVFLFPPKPKDTLMISRTPEVTCVVVDVSQEDPEVQFNWYVDGVEVHNAKTKPREEQFNSTYRVVSVLTVLHQDWLNGKEYKCKVSNKGLASSIEKTISKAKGQPREPQVYTLPPCQEEMTKNQVSLWCLVKGFYPSDIAVEWESNGQPENNYKTTPPVLDSDGSFFLYSKLTVDKSRWQEGNVFSCSVMHEALHNHYTQKSLSLSLGK
notes: also called BCMA×CD3 κλ bispecific antibody
B1: the figures for the EC50 in test [1] and in test [2] were 67 nM and 79 nM, respectively. The molecule further returned a Kd in test [3] of 32 nM.

B2: CD20 × CD3 κλ005 (bispecific antibody, human IgG4 S228P, kappa, lambda)
light 1: not shown
heavy 1: EVQLLESGGGVVQPGGSLRLSCAASGFTFNDYAMHWVRQAPGKGLEWVSTISWNSGSIGYADSVKGRFTISRDNSKNTLYLQMNSLRAEDTAVYYCAKDIQYGNYYYGMDYWGQGTLVTVSSASTKGPSVFPLAPCSRSTSESTAALGCLVKDYFPEPVTVSWNSGALTSGVHTFPAVLQSSGLYSLSSVVTVPSSSLGTKTYTCNVDHKPSNTKVDKRVESKYGPPCPPCPAPEFEGGPSVFLFPPKPKDTLMISRTPEVTCVVVDVSQEDPEVQFNWYVDGVEVHNAKTKPREEQFNSTYRVVSVLTVLHQDWLNGKEYKCKVSNKGLASSIEKTISKAKGQPREPQVCTLPPSQEEMTKNQVSLSCAVKGFYPSDIAVEWESNGQPENNYKTTPPVLDSDGSFFLVSKLTVDKSRWQEGNVFSCSVMHEALHNHYTQKSLSLSLGK
light 2: QAVVTQEPSLTVSPGGTVTLTCRSSTGAVTTSNYANWVQEKPGQAPRGLIGGTNKRAPWTPARFSGSLLGGKAALTITGAQAEDEAEYYCVLWYSNLWVFGGGTKLTVLGQPKAAPSVTLFPPSSEELQANKATLVCLISDFYPGAVTVAWKADSSPVKAGVETTTPSKQSNNKYAASSYLSLTPEQWKSHRSYSCQVTHEGSTVEKTVAPTECS
heavy 2: EVQLVESGGGLVQPGGSLRLSCAASGFTFNTYAMNWVRKAPGKGLEWVGRIRSKYNNYATYYADSVKDRFTISRDDSKNSLYLQMNSLKTEDTAVYYCVRHGNFGNSYVSWFAYWGQGTLVTVSSASTKGPSVFPLAPCSRSTSESTAALGCLVKDYFPEPVTVSWNSGALTSGVHTFPAVLQSSGLYSLSSVVTVPSSSLGTKTYTCNVDHKPSNTKVDKRVESKYGPPCPPCPAPEFEGGPSVFLFPPKPKDTLMISRTPEVTCVVVDVSQEDPEVQFNWYVDGVEVHNAKTKPREEQFNSTYRVVSVLTVLHQDWLNGKEYKCKVSNKGLASSIEKTISKAKGQPREPQVYTLPPCQEEMTKNQVSLWCLVKGFYPSDIAVEWESNGQPENNYKTTPPVLDSDGSFFLYSKLTVDKSRWQEGNVFSCSVMHEALHNHYTQKSLSLSLGK
notes: Human IgG4 knob-into-hole Fc; charge variants only in the CD3 arm; also called anti-CD20×CD3 κλ bispecific antibody
Consider B2, for which the concentration for a half-maximal effect (EC50) in test [4] turned out to be 14 nM; in test [5] it was 9 nM.

B3: CD20 × CD3 κλ001 (bispecific antibody, human IgG4 S228P, kappa, lambda)
light 1: not shown
heavy 1: EVQLLESGGGVVQPGGSLRLSCAASGFTFNDYAMHWVRQAPGKGLEWVSTISWNSGSIGYADSVKGRFTISRDNSKNTLYLQMNSLRAEDTAVYYCAKDIQYGNYYYGMDYWGQGTLVTVSSASTKGPSVFPLAPCSRSTSESTAALGCLVKDYFPEPVTVSWNSGALTSGVHTFPAVLQSSGLYSLSSVVTVPSSSLGTKTYTCNVDHKPSNTKVDKRVESKYGPPCPPCPAPEFEGGPSVFLFPPKPKDTLMISRTPEVTCVVVDVSQEDPEVQFNWYVDGVEVHNAKTKPREEQFNSTYRVVSVLTVLHQDWLNGKEYKCKVSNKGLASSIEKTISKAKGQPREPQVCTLPPSQEEMTKNQVSLSCAVKGFYPSDIAVEWESNGQPENNYKTTPPVLDSDGSFFLVSKLTVDKSRWQEGNVFSCSVMHEALHNHYTQKSLSLSLGK
light 2: QAVVTQEPSLTVSPGGTVTLTCRSSTGAVTTSNYANWVQQKPGQAPRGLIGGTNKRAPWTPARFSGSLLGGKAALTITGAQAEDEAEYYCVLWYSNLWVFGGGTKLTVLGQPKAAPSVTLFPPSSEELQANKATLVCLISDFYPGAVTVAWKADSSPVKAGVETTTPSKQSNNKYAASSYLSLTPEQWKSHRSYSCQVTHEGSTVEKTVAPTECS
heavy 2: EVQLVESGGGLVQPGGSLRLSCAASGFTFNTYAMNWVRQAPGKGLEWVGRIRSKYNNYATYYADSVKDRFTISRDDSKNSLYLQMNSLKTEDTAVYYCVRHGNFGNSYVSWFAYWGQGTLVTVSSASTKGPSVFPLAPCSRSTSESTAALGCLVKDYFPEPVTVSWNSGALTSGVHTFPAVLQSSGLYSLSSVVTVPSSSLGTKTYTCNVDHKPSNTKVDKRVESKYGPPCPPCPAPEFEGGPSVFLFPPKPKDTLMISRTPEVTCVVVDVSQEDPEVQFNWYVDGVEVHNAKTKPREEQFNSTYRVVSVLTVLHQDWLNGKEYKCKVSNKGLASSIEKTISKAKGQPREPQVYTLPPCQEEMTKNQVSLWCLVKGFYPSDIAVEWESNGQPENNYKTTPPVLDSDGSFFLYSKLTVDKSRWQEGNVFSCSVMHEALHNHYTQKSLSLSLGK
notes: also called anti-CD20×CD3 κλ bispecific antibody
On to B3, for which the EC50 was 12 nM in test [4] and 10 nM in test [5].
